The target of the assay is FRET-GATE-16 (human) (UniProt P60520).

Here are results for one substance from PMC3337841.

Sequence of FRET-GATE-16 (human) (P60520 whole entry): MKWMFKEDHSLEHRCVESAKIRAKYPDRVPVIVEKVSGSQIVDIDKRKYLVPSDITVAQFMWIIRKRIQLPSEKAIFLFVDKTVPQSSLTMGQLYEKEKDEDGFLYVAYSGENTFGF

Substance “Atg4A (from UniProt Q8WYN0 1-398) (enzyme)” had a catalytic efficiency (kcat/KM) of cleavage, FRET-based assay, 37°C, Buffer B of 1310 mol^−1S^−1.
